Columns and labels:
[1] = biological target: T1, Lamin B1 (human (endogenous in MCF10A and MDA-MB-231)), P20700; assay: non-reducing SDS-PAGE with Western blot; MCF10A cell lysate with 20 mM N-ethylmaleimide, without β-mercaptoethanol, 4 min at 50 °C, 4–12% gradient gel; shows only disulphide-linked species; conditions: remark: other sources report otherwise
T1 chain: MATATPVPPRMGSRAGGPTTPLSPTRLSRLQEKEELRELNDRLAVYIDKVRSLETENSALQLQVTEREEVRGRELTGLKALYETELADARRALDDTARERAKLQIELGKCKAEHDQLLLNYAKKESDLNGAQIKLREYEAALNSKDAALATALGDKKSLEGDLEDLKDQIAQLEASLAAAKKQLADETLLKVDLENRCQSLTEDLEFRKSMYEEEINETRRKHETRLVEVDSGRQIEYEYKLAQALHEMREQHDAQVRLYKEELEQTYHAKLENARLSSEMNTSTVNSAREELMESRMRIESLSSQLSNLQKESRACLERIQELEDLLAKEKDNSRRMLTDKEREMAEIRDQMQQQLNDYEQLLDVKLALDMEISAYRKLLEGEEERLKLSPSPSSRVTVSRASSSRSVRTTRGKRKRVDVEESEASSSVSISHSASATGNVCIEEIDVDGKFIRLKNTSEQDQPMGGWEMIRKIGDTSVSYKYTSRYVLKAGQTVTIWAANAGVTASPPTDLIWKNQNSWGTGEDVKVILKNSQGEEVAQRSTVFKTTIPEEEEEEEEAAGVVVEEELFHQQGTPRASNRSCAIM

[2] = biological target: the molecule itself; assay: as above

B1: Lamin B1, P20700 1-586 (natural protein)
chain: T1 chain
stoichiometry N [1]: 2

B2: SUN2 (natural protein, UniProt Q9UH99-2 1-738, looked up)
chain: MSRRSQRLTRYSQGDDDGSSSSGGSSVAGSQSTLFKDSPLRTLKRKSSNMKRLSPAPQLGPSSDAHTSYYSESLVHESWFPPRSSLEELHGDANWGEDLRVRRRRGTGGSESSRASGLVGRKATEDFLGSSSGYSSEDDYVEDSEGRGSKVTETEPVSSFPAGYSDVDQQSSSSRLRSAVSRAGSLLWMVATSPGRLFRLLYWWAGTTWYRLTTAASLLDVFVLTRRFSSLKTFLWFLLPLLLLTCLTYGAWYFYPYGLQTFHPALVSWWAAKDSRRPDEGWEARDSSPHFQAEQRVMSRVHSLERRLEALAAEFSSNWQKEAMRLERLELRQGAPGQGGGGGLSHEDTLALLEGLVSRREAALKEDFRRETAARIQEELSALRAEHQQDSEDLFKKIVRASQESEARIQQLKSEWQSMTQESFQESSVKELRRLEDQLAGLQQELAALALKQSSVAEEVGLLPQQIQAVRDDVESQFPAWISQFLARGGGGRVGLLQREEMQAQLRELESKILTHVAEMQGKSAREAAASLSLTLQKEGVIGVTEEQVHHIVKQALQRYSEDRIGLADYALESGGASVISTRCSETYETKTALLSLFGIPLWYHSQSPRVILQPDVHPGNCWAFQGPQGFAVVRLSARIRPTAVTLEHVPKALSPNSTISSAPKDFAIFGFDEDLQQEGTLLGKFTYDQDGEPIQTFHFQAPTMATYQVVELRILTNWGHPEYTCIYRFRVHGEPAH
notes: SUN2, human, endogenous in MCF10A and MDA-MB-231 cells; detected as a ~80 kDa monomer; Free cysteines were alkylated with 20 mM N-ethylmaleimide when the lysate was made; Which isoform the cells express was not determined; also called SUN-domain protein SUN2
ratio of the >140 kDa SUN2 signal to the SUN2 monomer signal [2]: ~1
stoichiometry N [2]: 2

— paper PMC11172124 (Cells, 2024)
